Measurements as given in patent publication US20230028110A1 (ADAPTATE BIOTHERAPEUTICS, published 2023).
Where two headings read alike, the source gives them in different places.

B1: 1245_P01_E07 (antibody, IgG1, V domains shown)
VH: QVQLVESGGGLVKPGGSLRLSCAASGFTFSDYYMSWIRQAPGKGLEWVSYISSSGSTIYYADSVKGRFTISRDNAKNSLYLQMNSLRAEDTAVYYCARVDYADAFDIWGQGTLVTVSS
VL: DIQMTQSPSSLSASVGDRVTIACRAGQSIGTYLNWYQQKPGKAPKLLIYVASSLQSGVPSRFSGSGSGTEFTLTISSLQPEDFATYYCQQSYSTLLTFGRGTKVEIK
notes: also called ADT1-7; parental ADT1-7
B2: ADT1-7-18 (antibody, IgG1, V domains shown)
VH: EVQLVESGGGLVKPGGSLRLSCAASGFTFSDYYMSWIRQAPGKGLEWVSYISSSGSTIYYADSVKGRFTISRDNAKNSLYLQMNSLRAEDTAVYYCARVSYDDAFDIWGQGTLVTVSS
VL: DIQMTQSPSSLSASVGDRVTIACRVGQSIGTYLNWYQQKPGKAPKLLIYVASSLQSGVPSRFSGSGSGTEFTLTISSLQPEDFATYYCQQSASELLTFGRGTKVEIK
notes: IgG1
B3: ADT1-7-10 (antibody, IgG1, V domains shown)
VH: EVQLVESGGGLVKPGGSLRLSCAASGFTFSDYYMSWIRQAPGKGLEWVSYISSSGSTIYYADSVKGRFTISRDNAKNSLYLQMNSLRAEDTAVYYCARDDYNDAFDIWGQGTLVTVSS
VL: DIQMTQSPSSLSASVGDRVTIACRAGQSIGTYLNWYQQKPGKAPKLLIYVASSLQSGVPSRFSGSGSGTEFTLTISSLQPEDFATYYCQQTASTLLTFGRGTKVEIK
notes: IgG1
B4: ADT1-7-19 (antibody, IgG1, V domains shown)
VH: EVQLVESGGGLVKPGGSLRLSCAASGFTFSDYYMSWIRQAPGKGLEWVSYISSSGSTIYYADSVKGRFTISRDNAKNSLYLQMNSLRAEDTAVYYCARIDYEDAFDIWGQGTLVTVSS
VL: DIQMTQSPSSLSASVGDRVTIACRAGQSIGTYLNWYQQKPGKAPKLLIYVASSLQSGVPSRFSGSGSGTEFTLTISSLQPEDFATYYCQQSASELLTFGRGTKVEIK
notes: IgG1
B5: ADT1-7-15 (antibody, IgG1, V domains shown)
VH: EVQLVESGGGLVKPGGSLRLSCAASGFTFSDYYMSWIRQAPGKGLEWVSYISSSGSTIYYADSVKGRFTISRDNAKNSLYLQMNSLRAEDTAVYYCARDDYNDAFDIWGQGTLVTVSS
VL: DIQMTQSPSSLSASVGDRVTIACRAGQSIGTYLNWYQQKPGKAPKLLIYVASSLQSGVPSRFSGSGSGTEFTLTISSLQPEDFATYYCQQSADTLLTFGRGTKVEIK
notes: IgG1
B6: ADT1-7-42 (antibody, IgG1, V domains shown)
VH: EVQLVESGGGLVKPGGSLRLSCAASGFTFSDYYMSWIRQAPGKGLEWVSYISSSGSTIYYADSVKGRFTISRDNAKNSLYLQMNSLRAEDTAVYYCARDDYEDAFDIWGQGTLVTVSS
VL: DIQMTQSPSSLSASVGDRVTIACRAGQSIGTYLNWYQQKPGKAPKLLIYVASSLQSGVPSRFSGSGSGTEFTLTISSLQPEDFATYYCQQSSSELLTFGRGTKVEIK
notes: IgG1
B7: ADT1-7-20 (antibody, IgG1, V domains shown)
VH: EVQLVESGGGLVKPGGSLRLSCAASGFTFSDYYMSWIRQAPGKGLEWVSYISSSGSTIYYADSVKGRFTISRDNAKNSLYLQMNSLRAEDTAVYYCARVDYQEAFDIWGQGTLVTVSS
VL: DIQMTQSPSSLSASVGDRVTIACRAGQSIGTYLNWYQQKPGKAPKLLIYVASSLQSGVPSRFSGSGSGTEFTLTISSLQPEDFATYYCQQSYSGLDTFGRGTKVEIK
notes: IgG1
B8: ADT1-7-22 (antibody, IgG1, V domains shown)
VH: EVQLVESGGGLVKPGGSLRLSCAASGFTFSDYYMSWIRQAPGKGLEWVSYISSSGSTIYYADSVKGRFTISRDNAKNSLYLQMNSLRAEDTAVYYCARDDYNDAFDIWGQGTLVTVSS
VL: DIQMTQSPSSLSASVGDRVTIACRAGQSIGTYLNWYQQKPGKAPKLLIYVASSLQSGVPSRFSGSGSGTEFTLTISSLQPEDFATYYCQQSASELLTFGRGTKVEIK
notes: IgG1
B9: 1245_P01_G06 (antibody, V domains shown)
VH: QVQLVESGGGLVKPGGSLRLSCAASGFTFSDYYMSWIRQAPGKGLEWVSYISSSGSTIYYADSVKGRFTISRDNAKNSLYLQMNSLRAEDTAVYYCARHSWNDAFDVWGQGTLVTVSS
VL: not shown
notes: IgG1
B10: ADT1-7-23 (antibody, IgG1, V domains shown)
VH: EVQLVESGGGLVKPGGSLRLSCAASGFTFSDYYMSWIRQAPGKGLEWVSYISSSGSTIYYADSVKGRFTISRDNAKNSLYLQMNSLRAEDTAVYYCARVDYNEAFDIWGQGTLVTVSS
VL: DIQMTQSPSSLSASVGDRVTIACRAGQSIGTYLNWYQQKPGKAPKLLIYVASSLQSGVPSRFSGSGSGTEFTLTISSLQPEDFATYYCQQSYSGLDTFGRGTKVEIK
notes: IgG1
B11: ADT1-7-17 (antibody, IgG1, V domains shown)
VH: EVQLVESGGGLVKPGGSLRLSCAASGFTFSDYYMSWIRQAPGKGLEWVSYISSSGSTIYYADSVKGRFTISRDNAKNSLYLQMNSLRAEDTAVYYCARIDYEDAFDIWGQGTLVTVSS
VL: DIQMTQSPSSLSASVGDRVTIACRAGQSIGTYLNWYQQKPGKAPKLLIYVASSLQSGVPSRFSGSGSGTEFTLTISSLQPEDFATYYCQQSGSELLTFGRGTKVEIK
notes: IgG1
B12: 1138_P01_B09 (antibody, IgG1, V domains shown)
VH: EVQLLESGGGLVKPGGSLRLSCAASGFTFSDYYMSWIRQAPGKGLEWVSYISSSGSTIYYADSVKGRFTISRDNAKNSLYLQMNSLRAEDTAVYYCARHSWSDAFDIWGQGTLVTVSS
VL: DIQMTQSPSSLSASVGDRVTITCQASQDISNYLNWYQQKPGKAPKLLIYDASNLETGVPSRFSGSGSGTDFTLTISSLQPEDFATYYCQQSYSTPLTFGGGTKVEIK
notes: IgG1
B13: 1251_P02_C05 (antibody, IgG1, V domains shown)
VH: EVQLLESGGGLVQPGGSLRLSCAASGFTFSSYAMSWVRQAPGKGLEWVSAISGGGGTTYSSDSVKGRFTISRDNSKNTLYLQMNSLRAEDTAVYYCARDSGVAFDIWGQGTLVTVSS
VL: DIQMTQSPSFLSASVGDRVTITCRASQNIRTWLAWYQQKPGRAPKLLIYDASSLESGVPSRFSGSGSGTDFTLTISSLQPEDFATYYCQQFKRYPPTFGLGTKVEIK
notes: IgG1
B14: 1252_P01_C08 (antibody, IgG1, V domains shown)
VH: EVQLLESGGGLVQPGRSLRLSCAASGFTVSSNYMSWVRQAPGKGLEWVSVIYSGGSTYYADSVKGRFTISRDNSKNTLYLQMNSLRAEDTAVYYCASPIELGAFDIWGQGTLVTVSS
VL: SSYELTQPPSVSVAPGKTARITCGGNNIGSQSVHWYQQKPGQAPMLVIYYDSDRPSGIPERFSGSNSGNTATLTISRVEAGDEADYYCQVWDSSSDHVVFGGGTKLTVL
notes: IgG1, lambda light chain
B15: 1141_P01_E01 (antibody, IgG1, V domains shown)
VH: QVQLVQSGAEVKKPGESLKISCKGSGYSFTSYWIGWVRQMPGKGLEWMGIIYPGDSDTRYSPSFQGQVTISADKSISTAYLQWSSLKASDTAMYYCARHQVDTRTADYWGQGTLVTVSS
VL: SQSALTQPASVSGSPGQSVTISCTGTRSDVGGYNYVSWYQHHPGKAPKLMIYEVSNRPSGVSNRFSGSKSGNTASLTISGLQAEDEADYYCSSYTSTSTLVFGGGTKLTVL
notes: IgG1, lambda light chain
B16: 1139_P01_E04 (antibody, IgG1, V domains shown)
VH: QVQLQQSGPGLVKPSQTLSLTCAISGDSVSSNSAAWNWIRQSPSRGLEWLGRTYYRSKWYNDYAVSVRSRITINPDTSKNQFSLQLNSVTPEDTAVYYCARSWNDAFDIWGQGTTVTVSS
VL: DIVMTQSPSTLSASIGDRVTITCRAGQSISTWLAWYQQKPGKAPKLLIYDASSLESGVPLRFSGSGSGTDFTLTISSLQPEDFATYYCQQSYSTPLTFGGGTKVEIK
notes: IgG1
B17: 1245_P01_G09 (antibody, IgG1, V domains shown)
VH: QVQLQQSGPGLVKPSQTLSLTCAISGDSVSSNSAAWNWIRQSPSRGLEWLGRTYYGSKWYNEYALSVKSRIIINPDTSKNQFSLQLNSVTPEDTAVYYCARDYYYSMDVWGQGTLVTVSS
VL: DIVMTQSPSTLSASIGDRVTITCRAGQSISTWLAWYQQKPGKAPKLLIYDASSLESGVPLRFSGSGSGTEFTLAISSLQPDDFATYYCQQSYSTPVTFGQGTKVEIK
notes: IgG1
B18: 1245_P02_F07 (antibody, IgG1, V domains shown)
VH: QVQLQQSGPGLVKPSQTLSLTCVISGDSVSSNSAAWNWIRQSPSRGLEWLGRTYYRSKWYNDYAVSVKSRITINPDTSKNQFSLQLNSVTPEDTAVYYCARDYYYSMDVWGQGTMVTVSS
VL: DIQMTQSPSTLSASVGDRVTITCRASQSISSWLAWYQQKPGKAPKLLIYDASSLESGVPLRFSGSGSGTEFTLTISSLQPDDFATYYCQQSHSHPPTFGPGTKVDIK
notes: IgG1
B19: ADT1-4-86 (antibody, IgG1, V domains shown)
VH: EVQLQQSGPGLVKPSQTLSLTCAISGDSVSSKSVAWNWIRQSPSRGLEWLGRTYYRSKWSTDYAASVKSRITINPDTSKNQLSLQLNSVTPEDTAVYYCARTWLGNVDVWGQGTLVTVSS
VL: DIQMTQSPPALSASVGDRVTITCRASQDINDWLAWYQHKPGKAPKLLIYDASSLESGVPLRFSGSGSGTEFTLTISSLQPDDFATYYCQQKYSEPQVTFGQGTRLEIK

What was measured:
[1] = target: Vδ1 chain of the γδ TCR on human Vδ1 γδ T cells (human); test: cell-based or functional assay
[2] = target: T1, L1 (DV1-GV4), soluble human Vδ1/Vγ4 γδ TCR heterodimer in leucine zipper format (human); test: DELFIA, 100 nM biotinylated L1
T1 construct: Biotinylated in the DELFIA ranking; also called Antigen L1 (TRDV1/TRGV4); human DV1-GV4; not shown: gamma chain: Vγ4 (TRGV4) domain on a TCR constant region, leucine zipper, histidine tag
T1 sequence (main, as listed by the source): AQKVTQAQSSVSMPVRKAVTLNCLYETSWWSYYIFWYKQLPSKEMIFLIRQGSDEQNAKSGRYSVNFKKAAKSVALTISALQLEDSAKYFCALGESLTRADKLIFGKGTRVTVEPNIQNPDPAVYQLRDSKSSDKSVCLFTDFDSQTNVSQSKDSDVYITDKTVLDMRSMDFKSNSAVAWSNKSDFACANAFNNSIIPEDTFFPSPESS

[3] = target: T1, L1 (DV1-GV4), soluble human Vδ1/Vγ4 γδ …; test: DELFIA ELISA, human antigen; heat map cell of the clone
[4] = target: T1, L1 (DV1-GV4), soluble human Vδ1/Vγ4 γδ …; test: SPR (Reichert 4SPR), antibody on Protein A chip, human Vδ1 antigen as analyte; average of two replicates on two instruments
Text: The binding affinity of the antibodies to target (i.e. the Vδ1 chain of a γδ TCR) is established by SPR analysis using a Reichert 4SPR instrument (Reichert Technologies).
The binding interaction of Vδ1 and the affinity-matured mAbs were modelled according to Langmuir 1:1 binding.

[5] = target: T2, Vδ1 chain of the γδ TCR on human Vδ1 γδ T cells (human); test: flow cytometry binding to Vδ1 γδ T cells, donor TS164; column head printed 'IC50', unit nM from the chart axis and FIG. 34D
T2 construct: whole, on cells; also called cell surface Vδ1 TCR; Vδ1-positive γδ T cells
T2 sequence (A0A1B0GX56 22-115, stated change not applied): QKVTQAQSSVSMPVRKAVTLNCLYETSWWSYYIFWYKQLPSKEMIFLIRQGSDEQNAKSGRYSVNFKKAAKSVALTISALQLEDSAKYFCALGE
Experimental: (§1) All incubation steps were performed at 4° C. and mAb binding was determined using flow cytometry to measure the median level of fluorescence. Logarithmic four parameter dose-response curves were fitted using GraphPad Prism 9. […] For Vδ1-positive γδ T cell, data is represented as the mean two donors.
(§2) A range of target cells were assayed to determine the specificity and affinity of Vδ1 mAb binding. This included expanded skin-derived Vδ1 γδ T-cells, HEK293T cells, Raji cells, and multiple leukocyte subsets within human primary blood mononuclear cells. Adherent or semi-adherent cells (skin-derived Vδ1 γδ T-cells, HEK293T) were detached from tissue culture flask and resuspended in PBS. Similarly, non-adherent cell types (Raji, PBMC), were harvested and resuspended in PBS. Cells were seeded at a final density of 100,000 cells per well in v-bottom 96-well plates. Cells underwent centrifugation and the cell pellets were resuspended in FcR blocking reagent according to the manufacturer's instructions, and incubated for 20 minutes at 4C prior to a further wash. […] To determine the quantity of mAb bound to the cell surface, the cells were then stained with a murine anti-human IgG secondary antibody, conjugated to APC (dilution: 1:100). For Vδ1 γδ T-cells, HEK293T and Raji, the cells were also stained solely with a viability dye.

[6] = target: T2, Vδ1 chain of the γδ TCR on human Vδ1 γδ …; test: flow cytometry binding to Vδ1 γδ T cells, donor ATS006; column head printed 'IC50', unit nM from the chart axis and FIG. 34D
Experimental: as §1, §2

[7] = target: T2, Vδ1 chain of the γδ TCR on human Vδ1 γδ …; test: cell-based or functional assay; remark: listed apart in the source

Binder	DELFIA signal at 100 nM L1 [2]	ELISA signal (heat map) [3]	also measured
B1	163000 fluorescence units	5470	IC50 TCR DR (no THP-1) [1]: 22.4 nM; IC90 TCR DR (noTHP-1) [1]: 139 nM; Kd [4]: 38.1 nM; EC50 [5]: 226 nM; EC50 [6]: > 100 nM
B2		34800	
B3		30900	
B4		34700	
B5		30400	
B6		37600	
B7		30800	IC50 TCR DR (no THP-1) [1]: 0.164 nM; IC90 TCR DR (noTHP-1) [1]: 1.04 nM; Kd [4]: 4.99 nM; EC50 [5]: 2.68 nM; EC50 [6]: 37.2 nM
B8		27800	
B9	22500 fluorescence units		
B10		34400	
B11		30200	
B12	29200 fluorescence units		
B13	65300 fluorescence units		
B14	1980 fluorescence units		
B15	137000 fluorescence units		
B16	23800 fluorescence units		
B17	18400 fluorescence units		
B18	10400 fluorescence units		
B19			IC90 TCR DR (noTHP-1) [7]: 1 nM
